Measurements: US20220380473A1, “ANTI-GAL3 ANTIBODIES AND USES THEREOF” (TrueBinding, Inc., priority 2019, published 2022)
Entries after “also recorded” stand apart in the source; their conditions may differ.

Tests used:
[1] = tested on: mouse unilateral ureteral obstruction (UUO) model of kidney fibrosis; test: Mouse UUO model of kidney fibrosis (Example 32); assay type: in vivo; details: treated one day before UUO; for KIM-1 levels / serum NGAL levels: vs isotype control; for picosirius red staining of kidney, image quantification: isotype 2.65%
Source text: To further evaluate the ability of GAL3-targeted antibodies with the ability to block TIM3-GAL3 assembly to impact fibrosis, we evaluated the impact of humanized IMT001-4 and IMT006-1 in the mouse unilateral ureteral obstruction (UUO) model of kidney fibrosis. Briefly, 8-week-old C57BL/6J male mice were divided into sham, UUO with HuIgG4−, and UUO with HuIMT001-4, HuIMT006-1, and UUO with metformin-treatment. HuIgG4, HuIMT001-4 and HuIMT006-1 were each administered by intraperitoneal route at 10 mg/kg Q2Dx3 whereas metformin (500 mg/kg/day) was administered to mice dissolved in drinking water. In some settings therapeutic antibodies or metformin was administered 1 day before UUO, whereas in other experiments therapeutic antibodies or metformin was administered 1 day after UUO. After 7 days of UUO surgery, mice were sacrificed, left kidney was harvested and fixed with 4% paraformaldehyde for immunohistochemistry (IHC) and blood was collected in Heparin-EDTA tubes for blood biochemistry analysis. Levels of plasma mouse TIM-1/KIM-1/HAVCR were measured using a commercial ELISA kit (Catalog #MKM100; R&D Systems, Minneapolis, Minn.) according to the protocol provided by the manufacturer. Levels of plasma mouse Lipocalin-2/NGAL were measured using a commercial ELISA kit (Catalog #DY1857; R&D Systems, Minneapolis, Minn.) according to the protocol provided by the manufacturer. 5 um sections of fixed kidney specimens were produced and processed for picosirius red staining as described for liver specimens above.
To evaluate the robustness of TIM3-GAL3 blocking antibodies in reducing kidney fibrosis, the ability of mIMT001 to inhibit fibrosis when administered one day after UUO surgery was evaluated. Following UUO surgery and treatment with isotype or control antibodies, kidney specimens were harvested and stained by IHC for Collagen 1a1 (Col1a1), a marker of kidney fibrosis.

[2] = target: Galectin-3 (Homo sapiens, UniProt P17931); test: SPR (BiacoreT200) binding affinity; details: 25° C., read-out: hGal-3 KD
Method: GAL3-binding antibodies were evaluated for their binding affinity by SPR. Kinetics experiments were performed on BiacoreT200 at 25° C. in high performance mode. Ligand proteins, purified antibodies were captured onto a CM5 chip coupled with anti-human Fc or anti-mouse Fc antibody, three antibodies at a time onto flow cell #2, 3, and 4, respectively, while flow cell #1 was used as reference. The analyte Galectin-3 in HBS-EP buffer was injected over all four flow cells at concentrations of 100, 50, 25, 12.5, 6.25, 3.125 and 0 nM at a flow rate of 30 μL/min. The complex was allowed to associate and dissociate for 240 and 300 seconds, respectively. The surfaces were regenerated with a 30 second injection of 10 mM Glycine pH 1.7 (flow rate 30 μL/min). The data were fit to a simple 1:1 interaction model using the global data analysis option available within BiacoreT200 Evaluation software V2.0. The affinity of Gal3 monoclonal antibodies was confirmed to be […] 30 nM for all antibodies studied (Table 24.1). Antibodies with affinity less than 2E-7 were selected for further characterization.

[3] = target: T1, association of GAL3 and TIM3 (Homo sapiens, UniProt P17931); test: GAL3-TIM3 blocking ELISA (Examples 24, 27); assay type: binding; details: for GAL3-TIM3 Blocking @ 3 ug/mL: 3 ug/mL antibody
T1 construct: full-length human Galectin-3 protein (Acro Biosystems, GA3-H5129); linker-spaced 6-histidine tag; purchased Acro Biosystems GA3-H5129 (Gal3); TM3-H5229 (TIM-3)
Method: Positively scoring wells were evaluated for the ability to block association of GAL3 and TIM3. To identify GAL3-targeted antibodies with the ability to block the interaction of GAL3 and TIM3, purified GAL3 and TIM3 proteins were incubated in the presence of GAL3-immunization hybridoma supernatants described above, or without antibody, and protein interaction was evaluated by ELISA. Human Galectin-3 protein (Acro Biosystems, GA3-H5129) was diluted in PBS (Corning, 21-030-CM) to a concentration of 3 μg/ml and added to the wells of a 96-well ELISA plate (Thermo Fisher, 44-2404-21). After incubating the plate at 4° C. overnight, the plate was washed three times with PBST (PBS with 0.05% Tween 20 [VWR, 0777]). The plate was then blocked for an hour with 2% BSA (EMD Millipore, 126609) in PBST at room temperature with gentle rocking. Thereafter, the 2% BSA in PBST was discarded and antibody or inhibitor (3-fold dilutions beginning at 20 μg/ml, 60 μg/ml, or 180 μM) in 2% BSA in PBST was added to the wells. Afterwards, 2 μg/ml of human TIM3 (Aero Biosystems, TM3-H5229) in 2% BSA in PBST was added to the antibody or inhibitor in the wells in a 1:1 ratio. The plate was incubated for an hour at room temperature with gentle rocking. Thereafter, the plate was washed three times with PBST, and 0.3 μg/ml of human TIM3 Biotinylated Antibody (R&D Systems, BAF2365) in 2% BSA in PBST was added to the wells. The plate was incubated for an hour with gentle rocking and then washed three times with PBST. Avidin-HRP (1:2000) was then added to the wells. The plate was incubated at room temperature for an hour with gentle rocking and then washed three times with PBST. TMB substrate (Thermo Scientific, 34029) was then added to each well. The reaction was stopped with 1M HCl (JT Baker, 5620-02) and read using a plate reader (Molecular Devices) at absorbance of 450 nm.

[4] = tested on: hGal3 peptide; test: Gal3 peptide library ELISA (Example 25); assay type: binding, human; details: for Epitope Mapping: hGal3 peptide No. bound; for Gal3 peptide bound: peptide array ELISA
Method: To identify the epitopes to which Gal3 antibodies with and without Gal3-TIM3 blocking activity bound, a library of 20 amino acid peptides representing portions of Gal3, summarized in Table 24.1, was produced and the ability to bind Gal3 antibodies was evaluated by ELISA.
At least 2 μg/ml of hGal3 peptide in 50 μl of PBS or 0.1 μg/ml of full-length human Gal3 protein (GenScript) and human Galectin-3 protein (Acro Biosystems, GA3-H5129) were diluted in PBS (Corning, 21-030-CM) to concentrations of at least 2 μg/ml or 0.1 μg/ml, respectively, and added to the wells of a 96-well ELISA plate (Thermo Fisher, 44-2404-21). After incubating the plate at 4° C. overnight, the plate was washed three times with PBST (PBS with 0.05% Tween 20 [VWR, 0777]). The plate was then blocked for an hour with 2% BSA (EMD Millipore, 126609) in PBST at room temperature with gentle rocking. Thereafter, the 2% BSA in PBST was discarded and human Galectin-3 hybridoma supernatants or antibodies were diluted in 2% BSA in PBST to concentrations of at least 0.1 μg/ml and added to the wells. The plate was incubated for an hour at room temperature with gentle rocking and then washed three times with PBST. Afterwards, Goat Anti-Mouse IgG-HRP (Jackson ImmunoResearch, 115-036-1461) or Goat Anti-Rat IgG HRP (abcam, ab205720) diluted in 2% BSA in PBST (1:4000) were added to the wells. The plate was incubated for 30 minutes to 1 hour at room temperature with gentle rocking and then washed three times with PB ST. TMB substrate (Thermo Scientific, 34029) was then added to each well. The reaction was stopped with 1M HCl (JT Baker, 5620-02) and read using a plate reader (Molecular Devices) at absorbance of 450 nm.

[5] = target: human Gal3-His (Homo sapiens, UniProt P17931); test: Antibody binning by biolayer interferometry (Gator); assay type: binding; details: antibody competition
Method: To determine whether Gal3-binding antibodies with Gal3-TIM3 blocking activity bind to the same or overlapping regions of the Gal3 molecule, antibody binning assays were performed to assess the ability of antibodies to simultaneously bind Gal3. Amine-reactive probes were loaded onto a Gator biosensor (Probe Life, Palo Alto, Calif.), equilibrated in dH20 for 60 seconds, dipped into 100 μl EDC 0.2M/NHS 0.05M activation buffer for 30 seconds, then dipped into a solution of […] human Gal3-His in 10 mM NaOAc buffer, pH 5 until binding was saturated, and quenched in 1 M ethanolamine pH 8.5 for 300 seconds. Following Gal3-His loading, tips were dipped in 20 μg/mL saturating antibody, then successively dipped into 5 μg/mL competing antibody.

T1 sequence (P17931 2-250 limits assumed): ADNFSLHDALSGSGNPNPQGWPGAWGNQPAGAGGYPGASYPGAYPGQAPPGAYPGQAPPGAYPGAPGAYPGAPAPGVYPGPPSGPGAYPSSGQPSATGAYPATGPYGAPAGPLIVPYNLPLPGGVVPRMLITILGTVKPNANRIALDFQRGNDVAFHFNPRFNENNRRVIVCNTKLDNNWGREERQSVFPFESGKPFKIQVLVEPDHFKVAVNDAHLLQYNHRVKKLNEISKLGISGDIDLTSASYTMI
Chain of Galectin-3 (P17931 whole entry): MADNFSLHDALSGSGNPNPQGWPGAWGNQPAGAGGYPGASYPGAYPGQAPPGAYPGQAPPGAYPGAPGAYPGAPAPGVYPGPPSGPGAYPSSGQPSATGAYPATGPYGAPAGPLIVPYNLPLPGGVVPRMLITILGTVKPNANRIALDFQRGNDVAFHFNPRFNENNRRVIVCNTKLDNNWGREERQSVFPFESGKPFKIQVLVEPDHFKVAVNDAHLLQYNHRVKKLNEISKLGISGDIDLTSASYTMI
Chain of human Gal3-His (P17931 whole entry): as above

Molecule | Kd [2] [nM] | GAL3-TIM3 Blocking @ 3 ug/mL [3] [%] | Bin [5] | assembly of GAL3 and TIM3, % of levels observed in the absence of a GAL3-targeted antibody ([3]; 3 μg/mL (FIG. 24)) | IC50 ([3]; titration series, purified GAL3 and TIM3) [nM] | picosirius red staining of kidney, qualitative [1] | KIM-1 levels [1] | serum NGAL levels [1] | picosirius red staining of kidney, image quantification [1] [%] | Epitope Mapping [4] | Gal3 peptide bound [4]
CN(C)C(=N)N=C(N)N [metformin, reference compound] |  |  |  |  |  | substantial reductions in picosirius red staining | the reduction was not statistically significant | significantly impact NGAL levels | 1.83 |  | 
13G4.2F8: murine anti-Gal3 antibody (antibody, V domains shown) VH: QVQLQQPGAELVKPGASVKLSCKASGYTFTSYWMHWVKQRPGQGLEWIGMIHPNSGSTDYNEKFKNKATLNVDKSSSTAYIQLSSLTSEDSAVYYCTRWGIYYYARDYWGQGTTLTVSS VL: DIVMTQSQKFMSTSVGERVSITCKASQNVGTNVAWYQQKAGQSLELLIYGASNRHTGVPDRFTGSGSGTDFTLTITNVQSEDMTNYFCEQYSNFPLTFGAGTKLELK | 2.53 | 0 |  |  |  |  |  |  |  | Non-linear | 
13A12.2E5: murine anti-Gal3 antibody (antibody, V domains shown) VH: QIQLVQSGPELKKPGETVKISCKTSGYKFKTYVMSWVKQAPGKALKWMGWINTYSGVPTYADDFKGRFAFSLETSASTAYLEIINLKNEDTATYFCARDGNYGDPMDYWGQGTSVTVSS VL: DVVMTQTPLTLSVAIGQPASISCKSSQSLLYTNGKTYLNWLLQRPGQSPKRLIYLLSKLDSGVPDRFSASGSGTDFTLKISRVEAEDLGVYYCLQSTHFPLTFGAGTKLEMK | 8.2 | 35 |  |  |  |  |  |  |  |  | peptide 4; also recorded: peptide 6
2D10.2B2: murine anti-Gal3 antibody (antibody, V domains shown) VH: QVQLQQSGPELVKPGASVKISCKASGYTFTDYYINWVKQRPGQGLEWIGWIYPGSNDTKYNEKFKGKATLTVDTSSSTAYMQLGSLTSEDSAVYFCANYFGCSGWFFDVWGTGTTVTVSS VL: DIVMTQAAFSNPVTLGTSASISCRSSKSLLHSDGITYLYWYLQRPGQSPQLLIYRMSNLASGVPDRFSGSGSGTDFTLRISRVEAEDVGVYYCAQMIEFPLTFGAGTILELK | 0.753 | 86 | 3 |  |  |  |  |  |  | 6 | peptide 6

Second part, led by results:

Kd [2] [nM] | GAL3-TIM3 Blocking @ 3 ug/mL [3] [%] | Bin [5] | assembly of GAL3 and TIM3, % of levels observed in the absence of a GAL3-targeted antibody ([3]; 3 μg/mL (FIG. 24)) | IC50 ([3]; titration series, purified GAL3 and TIM3) [nM] | Molecule | picosirius red staining of kidney, qualitative [1] | KIM-1 levels [1] | serum NGAL levels [1] | picosirius red staining of kidney, image quantification [1] [%] | Epitope Mapping [4] | Gal3 peptide bound [4]
10.2 | 100 | 3 | less than 5% |  | 846.2H3: murine anti-Gal3 antibody (antibody, V domains shown) VH: QIQLVQSGPELKKPGETVKISCKASGYTFTNYGMNWVKQAPGKGLKWMGWINTYTGEPSYADDFKGRFAFSLETSASTAYLQINNLKNEDMATYFCARWGGYDGDYYAMDYWGQGTSVTVSS VL: NIMMTQSPSSLAVSAGEKVTMSCKSSQSVLYSSNQKNYLAWYQQKPGQSPKLLIYWASTRESGVPDRFTGSGSGTDFTLTISSVQPEDLAVYYCHQYLSSLTFGAGTKLELK |  |  |  |  | 6 | peptide 6
 |  |  |  | 26.5 | IMT006-1: humanized anti-Gal3 antibody derived from 4A11.2B5 (antibody, V domains shown, VH of IMT006-1; VL of IMT006-1, humanized anti-Gal3 antibody derived from 4A11.2B5) VH: QVQLVQSGAEVKKPGASVKVSCKASGYSFTNYYMHWVRQAPGQGLEWMGWIYPGSGNTNYNEKFQGRVTMTADTSISTAYMELSRLRSDDTAVYYCSTAPGGFDVWGQGTTVTVSS VL: DIVMTQTPLSLSVTPGQPASISCKSSKSLLHSDGITYLYWYLQKPGQSPQLLIYRMSNLASGVPDRFSGSGSGTDFTLKISRVEAEDVGVYYCAQMLEFPLTFGQGTKLEIK | substantial reductions in picosirius red staining | significantly reduced | significant reductions in serum NGAL levels | 1.26 |  | 
